Among the data in publication PMC3202057 (Journal of molecular biology, 2011) are Kd values, retold here.

This assay has as its target T1, N-terminal effector PYRIN domain of NLRP12 (residues 1-98) (human, UniProt P59046 1-98).
T1 sequence: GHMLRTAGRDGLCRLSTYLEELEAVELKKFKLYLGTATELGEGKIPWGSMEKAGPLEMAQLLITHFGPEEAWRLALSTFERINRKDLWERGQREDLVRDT
As to the kind of experiment: NMR titration.

B1: FAF-1 UBA domain and linker region (residues 1-99) (domain or fragment, UniProt Q9UNN5 1-99, looked up)
chain: MASNMDREMILADFQACTGIENIDEAITLLEQNNWDLVAAINGVIPQENGILQSEYGGETIPGPAFNPASHPASAPTSSSSSAFRPVMPSRQIVERQPR
For the molecule B1, the dissociation constant Kd is at least 50 µM.

B2: FAF-1 UBA domain (residues 1-57) (domain or fragment, UniProt Q9UNN5 1-57, looked up)
chain: MASNMDREMILADFQACTGIENIDEAITLLEQNNWDLVAAINGVIPQENGILQSEYG
Turning to B2, the Kd was at least 150 µM.

What is called Kd is the concentration at which binding is half-saturated. A low value points to a tighter complex.
